In patent US20170137783A1:

Biological target: mesothelin-Fc fusion protein, immobilized on beads (UniProt Q13421)
Experiment: cell-based or functional assay

Chain of UniProt Q13421 (Q13421 other isoform, or with tags, fused parts or gaps limits assumed): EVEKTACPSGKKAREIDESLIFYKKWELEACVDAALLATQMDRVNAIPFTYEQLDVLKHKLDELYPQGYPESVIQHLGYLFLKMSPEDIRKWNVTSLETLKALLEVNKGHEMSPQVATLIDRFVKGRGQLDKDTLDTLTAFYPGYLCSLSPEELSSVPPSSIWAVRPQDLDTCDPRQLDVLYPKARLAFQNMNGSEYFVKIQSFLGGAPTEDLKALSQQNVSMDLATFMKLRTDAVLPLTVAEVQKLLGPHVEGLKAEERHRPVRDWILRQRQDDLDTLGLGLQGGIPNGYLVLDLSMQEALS

| Total Population Doublings (donor 1) (population doublings) | Total Population Doublings (donor 2) (population doublings) | Total Population Doublings (donor 3) (population doublings) | Substance |
| --- | --- | --- | --- |
| 5.8 | 6.9 | 6 | mesothelin-specific 28z CAR (SS1 scFv, CD28 and CD3z signaling domains) (receptor) |
| 8.8 | 8.4 | 8.4 | mesothelin-specific BBz CAR (SS1 scFv, 4-1BB and CD3z signaling domains) (receptor) |
